US20220010008A1
Several values for one entry are separate records, joined by “and”; a condition that tells them apart may be missing. Equal values may be shown once. One block for each binder: values may come before it.

Legend:
[1] = biological target: recombinant human IL-5 protein with His tag (human) (UniProt P05113); experiment: ELISA, biotin-human IL-5 on streptavidin; antibody 0.0009 nM
[2] = biological target: recombinant human IL-5 protein with His tag (human) (UniProt P05113); experiment: ELISA, biotin-human IL-5 on streptavidin; antibody 0.0213 nM
[3] = biological target: recombinant human IL-5 protein with His tag (human) (UniProt P05113); experiment: ELISA, biotin-human IL-5 on streptavidin; antibody 13.3333 nM
[4] = biological target: recombinant human IL-5 protein with His tag (human) (UniProt P05113); experiment: ELISA, biotin-human IL-5 on streptavidin; antibody 2.6667 nM
[5] = biological target: recombinant human IL-5 protein with His tag (human) (UniProt P05113); experiment: ELISA, biotin-human IL-5 on streptavidin; antibody 0.0043 nM
[6] = biological target: recombinant human IL-5 protein with His tag (human) (UniProt P05113); experiment: ELISA, biotin-human IL-5 on streptavidin; antibody 0.1067 nM
[7] = biological target: recombinant human IL-5 protein with His tag (human) (UniProt P05113); experiment: ELISA, biotin-human IL-5 on streptavidin; antibody 0.0002 nM
[8] = biological target: recombinant human IL-5 protein with His tag (human) (UniProt P05113); experiment: ELISA, biotin-human IL-5 on streptavidin; antibody 0.5333 nM
[9] = biological target: recombinant human IL-5 protein (human) (UniProt P05113); experiment: cell-based or functional assay
[10] = biological target: recombinant human IL-5 protein (human) (UniProt P05113); experiment: FACS blocking: biotin-IL-5 bound to CHOK1 IL-5Ra/CSF2RB cells, Ab 0.0533 nM
[11] = biological target: recombinant human IL-5 protein (human) (UniProt P05113); experiment: FACS blocking: biotin-IL-5 bound to CHOK1 IL-5Ra/CSF2RB cells, Ab 1.3333 nM
[12] = biological target: recombinant human IL-5 protein (human) (UniProt P05113); experiment: ELISA, biotin-human IL-5 on streptavidin plate, Ab 0.1067 nM
[13] = biological target: recombinant human IL-5 protein (human) (UniProt P05113); experiment: FACS blocking: biotin-IL-5 bound to CHOK1 IL-5Ra/CSF2RB cells, Ab 0.0107 nM
[14] = biological target: recombinant human IL-5 protein (human) (UniProt P05113); experiment: ELISA, biotin-human IL-5 on streptavidin plate, Ab 0.0043 nM
[15] = biological target: recombinant human IL-5 protein (human) (UniProt P05113); experiment: FACS blocking: biotin-IL-5 bound to CHOK1 IL-5Ra/CSF2RB cells, Ab 0.0021 nM
[16] = biological target: recombinant human IL-5 protein (human) (UniProt P05113); experiment: FACS blocking: biotin-IL-5 bound to CHOK1 IL-5Ra/CSF2RB cells, Ab 0.0004 nM
[17] = biological target: recombinant human IL-5 protein (human) (UniProt P05113); experiment: SPR, human IL-5 immobilized on CM5 chip, chimeric antibody as analyte, 1:1 global fit
[18] = biological target: recombinant human IL-5 protein (human) (UniProt P05113); experiment: ELISA, biotin-human IL-5 on streptavidin plate, Ab 2.6667 nM
[19] = biological target: recombinant human IL-5 protein (human) (UniProt P05113); experiment: FACS blocking: biotin-IL-5 bound to CHOK1 IL-5Ra/CSF2RB cells, Ab 0.2667 nM
[20] = biological target: recombinant human IL-5 protein (human) (UniProt P05113); experiment: ELISA, biotin-human IL-5 on streptavidin plate, Ab 0.0002 nM
[21] = biological target: recombinant human IL-5 protein (human) (UniProt P05113); experiment: ELISA, biotin-human IL-5 on streptavidin plate, Ab 13.3333 nM
[22] = biological target: recombinant human IL-5 protein (human) (UniProt P05113); experiment: ELISA, biotin-human IL-5 on streptavidin plate, Ab 0.0213 nM
[23] = biological target: recombinant human IL-5 protein (human) (UniProt P05113); experiment: ELISA, biotin-human IL-5 on streptavidin plate, Ab 0.5333 nM
[24] = biological target: recombinant human IL-5 protein (human) (UniProt P05113); experiment: ELISA, biotin-human IL-5 on streptavidin plate, Ab 0.0009 nM
[25] = biological target: recombinant human IL-5 protein (human) (UniProt P05113); experiment: FACS blocking: biotin-IL-5 bound to CHOK1 IL-5Ra/CSF2RB cells, Ab 6.6667 nM
[26] = biological target: recombinant human IL-5 protein (human) (UniProt P05113); experiment: FACS blocking: biotin-IL-5 bound to CHOK1 IL-5Ra/CSF2RB cells, Ab 33.3333 nM

- OD450 nm [1]: 0.185 and 0.186
- OD450 nm [2]: 2.02 and 2.11
- OD450 nm [3]: 4.07 and 4.04
- OD450 nm [4]: 4.07 and 3.8
- OD450 nm [5]: 0.625 and 0.609
- OD450 nm [6]: 3.5 and 3.4
- OD450 nm [7]: 0.103 and 0.094
- OD450 nm [8]: 4.03 and 3.75
B1: 151G3B11 (murine hybridoma antibody) (antibody, V domains shown)
VH: EVHLQQSGAELVKPGASVKLSCTASGFNIKDYYMHWVKQRTEQGLEWIGRIDPEDGETKYAPKFQGQATITADTSSNTANLQLSSLTSEDTAVYYCARYGNFPDYWGPGTTLTVSS
VL: QIVLTQSPALMSASPGEKVTMTCSASSSVSYMYWYQQKPRSSPKPWIYLTSKLASGVPARFSGSGSGTSYSLTISSMEAEDAATYYCQQWNSNPYTFGGGTKLEIK

- RLU, CTLL-2 proliferation with IL-5, Ab 0.000170667 nM [9]: 59900 RLU and 54900 RLU
- RLU, CTLL-2 proliferation with IL-5, Ab 0.000853333 nM [9]: 59800 RLU and 56700 RLU
- RLU, CTLL-2 proliferation with IL-5, Ab 0.004266667 nM [9]: 64400 RLU and 61300 RLU
- RLU, CTLL-2 proliferation with IL-5, Ab 0.02133333 nM [9]: 62100 RLU and 59300 RLU
- RLU, CTLL-2 proliferation with IL-5, Ab 0.1066667 nM [9]: 54800 RLU and 52000 RLU
- RLU, CTLL-2 proliferation with IL-5, Ab 0.5333334 nM [9]: 44900 RLU and 38200 RLU
- RLU, CTLL-2 proliferation with IL-5, Ab 2.666667 nM [9]: 28000 RLU and 25400 RLU
- RLU, CTLL-2 proliferation with IL-5, Ab 13.33333 nM [9]: 16200 RLU and 17000 RLU
- RLU, CTLL-2 proliferation with IL-5, Ab 66.66666 nM [9]: 12200 RLU and 12400 RLU
- RLU, CTLL-2 proliferation with IL-5, Ab 3.41333E-05 nM [9]: 60700 RLU and 50200 RLU
- RLU, TF-1 proliferation with IL-5, Ab 0.00001 nM [9]: 110000 RLU and 113000 RLU
- RLU, TF-1 proliferation with IL-5, Ab 0.00003 nM [9]: 111000 RLU and 109000 RLU
- RLU, TF-1 proliferation with IL-5, Ab 0.00017 nM [9]: 111000 RLU
- RLU, TF-1 proliferation with IL-5, Ab 0.00085 nM [9]: 109000 RLU and 108000 RLU
- RLU, TF-1 proliferation with IL-5, Ab 0.00427 nM [9]: 109000 RLU and 114000 RLU
- RLU, TF-1 proliferation with IL-5, Ab 0.02133 nM [9]: 99100 RLU and 101000 RLU
- RLU, TF-1 proliferation with IL-5, Ab 0.10667 nM [9]: 81400 RLU and 82800 RLU
- RLU, TF-1 proliferation with IL-5, Ab 0.53333 nM [9]: 60400 RLU and 56800 RLU
- RLU, TF-1 proliferation with IL-5, Ab 2.66667 nM [9]: 45200 RLU and 42600 RLU
- RLU, TF-1 proliferation with IL-5, Ab 13.33333 nM [9]: 38500 RLU and 40000 RLU
- Fluorescence intensity [10]: 87 MFI
- Fluorescence intensity [11]: 46 MFI
- OD450 nm [12]: 0.716 OD450 nm and 0.77 OD450 nm
- Fluorescence intensity [13]: 88 MFI
- OD450 nm [14]: 0.108 OD450 nm and 0.106 OD450 nm
- Fluorescence intensity [15]: 88 MFI
- Fluorescence intensity [16]: 91 MFI
- Kd [17]: 0.188 nM
- koff [17]: 5.24e-05 s⁻¹
- kon [17]: 279000 M⁻¹ s⁻¹
- OD450 nm [18]: 2.96 OD450 nm and 3.01 OD450 nm
- Fluorescence intensity [19]: 67 MFI
- OD450 nm [20]: 0.083 OD450 nm and 0.098 OD450 nm
- OD450 nm [21]: 3.7 OD450 nm and 3.71 OD450 nm
- OD450 nm [22]: 0.224 OD450 nm and 0.221 OD450 nm
- OD450 nm [23]: 1.93 OD450 nm and 2 OD450 nm
- OD450 nm [24]: 0.081 OD450 nm and 0.087 OD450 nm
- Fluorescence intensity [25]: 39 MFI
- Fluorescence intensity [26]: 35 MFI
B2: 154F10G8 mouse-human chimeric antibody (antibody, human IgG4, V domains shown)
VH: QVQLQQPGAELVKPGASVKLSCKASGYTFTSYWITWVKQRPGQGLEWIGDIYPGSGSTFYNEKFKSEATLTVDTSSSTAYMQLSSLTSEDSAVFYCSTETTLGYWGQGTTLTVSS
VL: DVLMTQTPLSLPVSLGDQASISCRSSQSIVHNNGNTYLEWYLQKPGQSPKLLIYKVSNRFSGVPDRFSGSGSGTDFTLKISRVEAEDLGVYYCFQGSHVPFTFGSGTKLEIK

- OD450 nm [1]: 0.093 and 0.092
- OD450 nm [2]: 0.595 and 0.64
- OD450 nm [3]: 3.3 and 3.49
- OD450 nm [4]: 3.23 and 3.17
- OD450 nm [5]: 0.205 and 0.193
- OD450 nm [6]: 1.69 and 1.71
- OD450 nm [7]: 0.079 and 0.07
- OD450 nm [8]: 2.76 and 2.69
B3: 154F10G8 (murine hybridoma antibody) (antibody, V domains shown)
VH: QVQLQQPGAELVKPGASVKLSCKASGYTFTSYWITWVKQRPGQGLEWIGDIYPGSGSTFYNEKFKSEATLTVDTSSSTAYMQLSSLTSEDSAVFYCSTETTLGYWGQGTTLTVSS
VL: DVLMTQTPLSLPVSLGDQASISCRSSQSIVHNNGNTYLEWYLQKPGQSPKLLIYKVSNRFSGVPDRFSGSGSGTDFTLKISRVEAEDLGVYYCFQGSHVPFTFGSGTKLEIK
